What was measured:
Human SLIT2-N [1] = molecular target: T1, Human SLIT2-N (human, UniProt O94813 31-1121, limits assumed); test: HTRF competition: d2-labelled human SLIT2-N binding to human ROBO2 on HEK293 cells (competitor: cell surface ROBO2)
T1 construct: domain: SLIT2-N (N terminal fragment); Soluble analyte in SPR, d2-labelled in HTRF, overexpressed on HEK293 cells in flow cytometry; also called human SLIT2-N (N terminal fragment)
T1 sequence (looked up): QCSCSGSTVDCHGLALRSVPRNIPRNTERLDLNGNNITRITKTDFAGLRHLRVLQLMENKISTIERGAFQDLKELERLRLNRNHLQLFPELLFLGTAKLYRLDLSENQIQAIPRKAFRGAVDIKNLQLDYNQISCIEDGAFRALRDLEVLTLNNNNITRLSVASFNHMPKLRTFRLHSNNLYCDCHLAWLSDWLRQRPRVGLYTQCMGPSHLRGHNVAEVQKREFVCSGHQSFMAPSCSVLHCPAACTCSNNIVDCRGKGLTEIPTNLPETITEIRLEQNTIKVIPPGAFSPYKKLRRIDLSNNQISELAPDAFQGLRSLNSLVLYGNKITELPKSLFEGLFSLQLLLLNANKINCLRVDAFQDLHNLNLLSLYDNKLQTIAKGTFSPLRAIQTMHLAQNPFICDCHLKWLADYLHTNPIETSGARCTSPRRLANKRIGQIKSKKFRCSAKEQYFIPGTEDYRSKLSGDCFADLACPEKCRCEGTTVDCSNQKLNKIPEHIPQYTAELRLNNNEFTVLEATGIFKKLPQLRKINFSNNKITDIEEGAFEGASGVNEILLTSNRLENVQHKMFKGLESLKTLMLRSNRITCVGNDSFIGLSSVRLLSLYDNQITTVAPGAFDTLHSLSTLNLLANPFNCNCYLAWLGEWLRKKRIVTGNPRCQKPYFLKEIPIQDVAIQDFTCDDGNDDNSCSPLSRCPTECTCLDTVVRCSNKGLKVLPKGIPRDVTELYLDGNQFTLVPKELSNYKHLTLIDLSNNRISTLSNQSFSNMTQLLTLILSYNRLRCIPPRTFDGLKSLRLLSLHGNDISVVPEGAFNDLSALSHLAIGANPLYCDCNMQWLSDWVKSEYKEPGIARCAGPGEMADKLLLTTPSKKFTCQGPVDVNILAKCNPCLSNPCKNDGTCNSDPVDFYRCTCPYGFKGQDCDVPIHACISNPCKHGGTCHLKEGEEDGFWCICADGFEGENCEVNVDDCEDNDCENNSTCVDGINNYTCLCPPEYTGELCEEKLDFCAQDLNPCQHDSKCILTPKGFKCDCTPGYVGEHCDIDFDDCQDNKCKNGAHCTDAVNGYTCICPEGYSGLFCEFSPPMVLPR
Experimental: (§1) After incubation, fluorescence at 665 nm and 620 nm was measured on an Envision multilabel plate reader. The HTRF Ratio was calculated as follows: fluorescence at 665 nm/fluorescence at 620 nm×10,000. […] The IC₅₀ for each SLITx-N was determined using an 11-point, 4-fold dilution series with a top concentration of 4000 nM.

[2] = molecular target: T2, Human/cynomolgus monkey SLIT2-D2 (human and cynomolgus monkey (100% …, UniProt O94813 271-479)); test: SPR, ROBO2-Fc 2.2 captured by anti-human Fc on a C1 chip, SLIT2-D2 as analyte, 1:1 model
T2 construct: domain: D2; the crystallisation construct (271-479, His6) is kept as a separate molecule; also called Human and Cynomolgus Monkey SLIT2-D2; SLIT2 D2 domain
T2 sequence (looked up): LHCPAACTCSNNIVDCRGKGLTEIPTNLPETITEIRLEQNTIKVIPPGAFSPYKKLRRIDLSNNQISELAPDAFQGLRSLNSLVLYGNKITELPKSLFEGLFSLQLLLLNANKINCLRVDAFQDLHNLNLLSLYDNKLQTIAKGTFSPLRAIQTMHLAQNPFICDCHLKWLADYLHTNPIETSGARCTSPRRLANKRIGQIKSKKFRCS
Experimental: HBS-EP was used as a diluent. […] An 8 point 2-fold dilution series was performed on the SLIT2 ligands, ranging from 2 nM to 15.6 pM using HBS-EPB as the diluent. […] Association of the indicated SLIT2 ligand was followed for 120 s and dissociation monitored for 180 s. The apparent binding affinity was determined using a simple 1:1 interaction model of the kinetic rate constants.

Human SLIT2-N [3] = molecular target: T1, Human SLIT2-N; test: HTRF competition: d2-labelled human SLIT2-N binding to human ROBO2 on HEK293 cells; geometric mean, n=4; Table 2 species panel; geometric mean, n=4
Experimental: as §1

B1: ROBO2-Fc 2.2 (Fc fusion)
chain: SRLRQEDFPPRIVEHPSDVIVSKGEPTTLNCKAEGRPTPTIEWYKDGERVETDKDDPRSHRMLLPSGSLFFLRIVHGRRSKPDEGSYVCVARNYLGEAVSRNASLEVALLRDDFRQNPTDVVVAAGEPAILECQPPRGHPEPTIYWKKDKVRIDDKEERISIRGGKLMISNTRKSDAGMYTCVGTNMVGERDSDPAELTVFERGGSGGSEPKSSDKTHTCPPCPAPEAAGAPSVFLFPPKPKDTLMISRTPEVTCVVVDVSHEDPEVKFNWYVDGVEVHNAKTKPREEQYNSTYRVVSVLTVLHQDWLNGKEYKCKVSNKALPAPIEKTISKAKGQPREPQVYTLPPSREEMTKNQVSLTCLVKGFYPSDIAVEWESNGQPENNYKTTPPVLDSDGSFFLYSKLTVDKSRWQQGNVFSCSVMHEALHNHYTQKSLSLSPG
notes: Labelled with Alexa Fluor 647 in the flow cytometry assay; also called ROBO-Fc 2.2; ROBO2-Fc 2.2-AF647
Human SLIT2-N [1]
  IC50: 7 nM
[2]
  Kd: 0.293 nM
Human SLIT2-N [3]
  IC50: 3.9 nM

Source: patent publication US20210214414A1 (Pfizer, published 2021)
